From PMC5387736, “SnoN Stabilizes the SMAD3/SMAD4 Protein Complex” (Scientific Reports, 2017)

B1: His-tagged MH2 domain of SMAD4 (I314-Q549) (domain or fragment, UniProt Q13485 314-549, looked up)
chain: ISNHPAPEYWCSIAYFEMDVQVGETFKVPSSCPIVTVDGYVDPSGGDRFCLGQLSNVHRTEAIERARLHIGKGVQLECKGEGDVWVRCLSDHAVFVQSYYLDREAGRAPGDAVHKIYPSAYIKVFDLRQCHRQMQQQAATAQAAAAAQAAAVAGNIPGPGSVGGIAPAISLSAAAGIGVDDLRRLCILRMSFVKGWGPDYPRQSIKETPCWIEIHLHRALQLLDEVLHTMPIADPQ
notes: SMAD4, MH2 domain, residues I314-Q549; Cloned in pNIC28Bsa4; also called ^HisSMAD4; not shown: His6, N-terminal, kept

Assays:
SnoN (M1-S356), untagged = target: T1, SnoN (M1-S356), untagged (UniProt P12757-1 1-356); test: fluorescence labelling of cysteines (IRDye 800CW maleimide) and gel scanning; Ni-NTA eluate of the isolated SnoN-SMAD3-SMAD4 complex, boiled in 1% SDS, labelled, SDS-PAGE, near-infrared imaging; three measurements
T1 construct: Cloned in pNIC28Bsa4; the asterisk marks the TEV cut, so SM probably remains at the N-terminus after cleavage; also called truncated SnoN (M1-S356, 38.6 kDa); not shown: His6, N-terminal, cleaved
T1 sequence (looked up): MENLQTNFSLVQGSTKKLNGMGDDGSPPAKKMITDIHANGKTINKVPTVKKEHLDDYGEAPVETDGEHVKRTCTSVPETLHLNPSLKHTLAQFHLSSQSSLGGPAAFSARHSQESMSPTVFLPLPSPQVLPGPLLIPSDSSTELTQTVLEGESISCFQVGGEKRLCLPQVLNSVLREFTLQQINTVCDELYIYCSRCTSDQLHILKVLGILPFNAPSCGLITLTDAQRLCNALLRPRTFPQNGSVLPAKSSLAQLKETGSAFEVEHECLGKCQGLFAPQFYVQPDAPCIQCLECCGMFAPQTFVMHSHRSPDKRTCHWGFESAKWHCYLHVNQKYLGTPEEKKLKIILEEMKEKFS

[1] = target: Strep II-tagged MH2 domain of SMAD3 (S423E, S425D), E145-D425; test: SEC; gel filtration of the single proteins in buffer A (Superdex 200 for SMAD4 and SnoN constructs, Sephacryl 300 for SMAD3); oligomeric state from the retention volume
[2] = target: B1; test: crystal structure; SnoN SAND domain with SMAD4 MH2 domain, complex reconstituted 1:1; sitting drop, 2.8-3.3 M NaCl, 0.1 M Bis-Tris pH 5.5, 20 °C; 2.6 Å
[3] = target: B1; test: SPR; BIAcore 2000; SMAD4 (I314-Q549) amine-coupled on CM5 (about 1300 RU); SnoN SAND domain 0-500 nM injected; 10 mM HEPES pH 7.4, 150 mM NaCl, 0.005% TWEEN-20, 0.5 mM TCEP; room temperature; one-step binding model; settings: both partners purified

Strep II-tagged MH2 domain of SMAD3 (S423E, S425D), E145-D425 (domain or fragment)
stoichiometry N (SMAD3 per SnoN) (SnoN (M1-S356), untagged): 2.1 | stoichiometry N [1]: 3

B1
stoichiometry N (SnoN (M1-S356), untagged; both partners purified): 1.2 SMAD4 per SnoN | stoichiometry N [2]: 3

B2: SnoN SAND-domain (T238-S356) with C-terminal biotinylation sequence (domain or fragment, UniProt P12757-1 238-356, looked up)
chain: TFPQNGSVLPAKSSLAQLKETGSAFEVEHECLGKCQGLFAPQFYVQPDAPCIQCLECCGMFAPQTFVMHSHRSPDKRTCHWGFESAKWHCYLHVNQKYLGTPEEKKLKIILEEMKEKFS
notes: SnoN, SAND domain, residues T238-S356; Cloned in pNicBio3 for the SPR analysis; In the SPR it was the analyte, SMAD4 was amine-coupled; also called SnoN (T238-S356)
Kd [3]: 1100 nM | koff [3]: 0.129 s⁻¹ | kon [3]: 120000 M⁻¹ s⁻¹
